Laboratory results reported in PMC3760192.

What was measured:
Assay in all cases: AFM force spectroscopy
MBP-CBD protein = target: MBP-CBD protein
[1] = target: MBP-I^N of the Nostoc species PCC7120 (Nsp) split intein (Nostoc species PCC7120)
[2] = target: MBP-I^N of the Oscillatoria limnetica (Oli) split intein (Oscillatoria limnetica)
[3] = target: MBP-I^N of the Thermosynechococcus vulcanus (Tvu) split intein (Thermosynechococcus vulcanus)

MBP-I^C-CBD of the Thermosynechococcus vulcanus (Tvu) split intein
Fad (adhesion force) (MBP-CBD protein): < 30 pN

cleaved CBD-I^C of the Oscillatoria limnetica (Oli) split intein (domain or fragment)
Fad (adhesion force, mode of the lognormal distribution) [1]: 52 pN | Fad (adhesion force, mode of the lognormal distribution) [2]: 52 pN | Fad (adhesion force, mode of the lognormal distribution) [3]: 52 pN

MBP-I^C-CBD of the Nostoc species PCC7120 (Nsp) split intein
Fad (adhesion force) (MBP-CBD protein): < 30 pN

cleaved CBD-I^C of the Nostoc species PCC7120 (Nsp) split intein (domain or fragment)
Fad (adhesion force, mode of the lognormal distribution) [1]: 52 pN | Fad (adhesion force, mode of the lognormal distribution) [2]: 60 pN | Fad (adhesion force, mode of the lognormal distribution) [3]: 52 pN

cleaved CBD-I^C of the Thermosynechococcus vulcanus (Tvu) split intein (domain or fragment)
Fad (adhesion force, mode of the lognormal distribution) [1]: 49 pN | Fad (adhesion force, mode of the lognormal distribution) [2]: 52 pN | Fad (adhesion force, mode of the lognormal distribution) [3]: 53 pN

MBP-I^C-CBD of the Oscillatoria limnetica (Oli) split intein
Fad (adhesion force) (MBP-CBD protein): < 30 pN
